Results reported in publication doi:10.1101/2024.11.27.625426 (bioRxiv, 2024).
Where a chain is given by its changes, count along the chain named.

B1: NCS.1.1 mAb (IgG) (antibody, V domains shown)
VH: QVQLQESGPRLVKPSETLSLTCSVSGESISSGGYYWTWIRQHPGKGLEWIGNIFDTGSTDYSPSLKTRLTISIDTSKNQFYLRLNSATAADTAVYYCARVGFSLETDRPYYLGLDVWGQGTTVTVSS
VL: DIVMTQSPLSLPVTPGEPASISCRSSQSLLHSNGYTYLDWYLQKPGQSPQLLISFTSNRASGVPDRFSGSGSGTYFTLKISRVEAEDVGVYYCMQAVQTPWTFGQGTKVEIK
notes: copies: 2 + 2
B2: NCS.1.3 mAb (IgG) (antibody, V domains shown)
VH: B1 VH with N85T
VL: B1 VL with S10T, S54Y, T56A, T99S
notes: copies: 2 + 2

Target: unmodified NA of A/Vietnam/1203/2004 (VN04, H5N1) (Influenza A virus A/Vietnam/1203/2004 …, UniProt Q6DPL2)
Test: ELISA
Conditions: both partners purified

Row | Binder | binding result
1 | B1 | binds
2 | B2 | binds
